Molecular target: Chicken gizzard actin (chicken) (UniProt P63270)
Test: nanopore sensing

Chicken gizzard actin (from UniProt P63270 1-376) (natural protein)
filamentous fraction, initial: 17% | filamentous fraction, maximum: 75%
